Experiments:
[1] = biological target: CD28 (human) (UniProt P10747); test: flow cytometry, transfected Expi293F cells
[2] = biological target: human CTLA-4 (human) (UniProt P16410); test: flow cytometry, transfected Expi293F cells
[3] = biological target: human PD-L1 (human) (UniProt Q9NZQ7); test: flow cytometry, transfected Expi293F cells
[4] = biological target: human CTLA-4 (huCTLA4), on stably transduced CHO cells (human) (UniProt P16410); test: flow cytometry on CHO cells stably expressing huCTLA4, 33.3 nM Fc fusion, PE anti-human Fc
[5] = biological target: human PD-L1 (huPD-L1), on stably transduced CHO cells (human) (UniProt Q9NZQ7); test: flow cytometry on CHO cells stably expressing huPD-L1, 33.3 nM Fc fusion, PE anti-human Fc
[6] = biological target: CD28, endogenously expressed on Jurkat/IL2 reporter cells (human) (UniProt P10747); test: flow cytometry on Jurkat/IL2 reporter cells (endogenous CD28), 33.3 nM Fc fusion, PE anti-human Fc
[7] = biological target: human PD-L1 (human) (UniProt Q9NZQ7); test: flow cytometry, CHO cells stably expressing PD-L1
[8] = biological target: CD28 (human) (UniProt P10747); test: flow cytometry, Jurkat cells (CD28)
[9] = biological target: human PD-L1 (human) (UniProt Q9NZQ7); test: flow cytometry, MFI on PD-L1 cells over MFI on CD28 cells
[10] = biological target: human CTLA-4 (human) (UniProt P16410); test: flow cytometry, CHO cells stably expressing CTLA4
[11] = biological target: human CTLA-4 (human) (UniProt P16410); test: flow cytometry, CHO cells expressing huCTLA4
[12] = biological target: human PD-L1 (human) (UniProt Q9NZQ7); test: flow cytometry, CHO cells expressing huPD-L1
[13] = biological target: human CTLA-4 (human) (UniProt P16410); test: flow cytometry, CHO cells expressing huCTLA4, vs WT CD80 ECD-Fc (R&D)
[14] = biological target: CD28 (human) (UniProt P10747); test: flow cytometry, Jurkat/IL2 reporter cells (CD28), vs WT CD80 ECD-Fc (R&D)
[15] = biological target: CD28 (human) (UniProt P10747); test: flow cytometry, Jurkat/IL2 reporter cells (CD28)

Chain of human PD-L1 (human) (Q9NZQ7 19-290): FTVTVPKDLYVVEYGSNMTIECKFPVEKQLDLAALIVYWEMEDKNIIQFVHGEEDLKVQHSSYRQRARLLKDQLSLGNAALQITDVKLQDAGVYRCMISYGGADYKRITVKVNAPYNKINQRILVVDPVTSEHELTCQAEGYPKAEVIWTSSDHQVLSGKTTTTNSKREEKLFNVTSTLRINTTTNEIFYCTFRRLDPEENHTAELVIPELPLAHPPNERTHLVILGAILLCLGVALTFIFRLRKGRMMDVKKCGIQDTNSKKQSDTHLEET
Chain of human CTLA-4 (human) (P16410 36-223): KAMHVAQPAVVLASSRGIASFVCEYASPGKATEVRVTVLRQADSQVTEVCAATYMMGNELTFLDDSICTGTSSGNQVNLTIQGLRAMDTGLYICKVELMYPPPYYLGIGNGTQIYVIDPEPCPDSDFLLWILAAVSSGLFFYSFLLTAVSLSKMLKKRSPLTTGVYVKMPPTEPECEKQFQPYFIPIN
Chain of human PD-L1 (huPD-L1), on stably transduced CHO cells (human) (Q9NZQ7 19-290): as the sequence (Q9NZQ7 19-290) above
Chain of human CTLA-4 (huCTLA4), on stably transduced CHO cells (human) (P16410 36-223): as the sequence (P16410 36-223) above

B1: CD80 Y53C/L85R/K89N/A91T/F92P/K93V/R94L/I118V/T120S/I127T/T130A/K169E ECD-Fc (Fc fusion)
chain: VIHVTKEVKEVATLSCGHNVSVEELAQTRIYWQKEKKMVLTMMSGDMNIWPECKNRTIFDITNNLSIVILALRPSDEGTYECVVRKYENDTPVLEHLAEVTLSVKADFPTPSISDFEVPSSNIRRITCSASGGFPEPHLSWLENGEELNAINTTVSQDPETELYAVSSELDFNMTTNHSFMCLIKYGHLRVNQTFNWNTTKQEHFPDN
- MFI [1]: 1400
- parental ratio [1]: 0.03
- MFI [2]: 1460
- parental ratio [2]: 0.01
- MFI [3]: 2550
- parental ratio [3]: 0.03

B2: CD80 Y53C/L70Q/D90G/T130A/N149D/N152T/H188D ECD-Fc (Fc fusion)
chain: VIHVTKEVKEVATLSCGHNVSVEELAQTRIYWQKEKKMVLTMMSGDMNIWPECKNRTIFDITNNLSIVIQALRPSDEGTYECVVLKYEKGAFKREHLAEVTLSVKADFPTPSISDFEIPTSNIRRIICSASGGFPEPHLSWLENGEELDAITTTVSQDPETELYAVSSKLDFNMTTNHSFMCLIKYGDLRVNQTFNWNTTKQEHFPDN
- MFI [1]: 1990
- parental ratio [1]: 0.04
- MFI [2]: 3110
- parental ratio [2]: 0.01
- MFI [3]: 3290
- parental ratio [3]: 0.04

B3: CD80 R29D/Y31L/Q33H/K36G/M38I/T41A/M43R/M47T/E81V/L85R/K89N/A91T/F92P/K93V/R94L/I118V/T120S/T130A/K169E/M174T ECD-Fc (Fc fusion)
chain: VIHVTKEVKEVATLSCGHNVSVEELAQTDILWHKEGKIVLAMRSGDTNIWPEYKNRTIFDITNNLSIVILALRPSDEGTYVCVVRKYENDTPVLEHLAEVTLSVKADFPTPSISDFEVPSSNIRRIICSASGGFPEPHLSWLENGEELNAINTTVSQDPETELYAVSSELDFNTTTNHSFMCLIKYGHLRVNQTFNWNTTKQEHFPDN
- MFI [1]: 2740
- parental ratio [1]: 0.06
- MFI [2]: 2490
- parental ratio [2]: 0.01
- MFI [3]: 158000
- parental ratio [3]: 0.06

B4: CD80 H18L/R29D/Y31L/Q33H/K36G/M38I/T41A/M43R/M47T/E81V/L85R/K89N/A91T/F92P/K93V/R94L/F116S/T130A/H188D ECD-Fc (Fc fusion)
chain: VIHVTKEVKEVATLSCGLNVSVEELAQTDILWHKEGKIVLAMRSGDTNIWPEYKNRTIFDITNNLSIVILALRPSDEGTYVCVVRKYENDTPVLEHLAEVTLSVKADFPTPSISDSEIPTSNIRRIICSASGGFPEPHLSWLENGEELNAINTTVSQDPETELYAVSSKLDFNMTTNHSFMCLIKYGDLRVNQTFNWNTTKQEHFPDN
- MFI [1]: 1240
- parental ratio [1]: 0.03
- MFI [2]: 2090
- parental ratio [2]: 0.01
- MFI [3]: 110000
- parental ratio [3]: 0.03

B5: CD80 C16S/H18L/R29D/Y31L/Q33H/K36G/M38I/T41A/M43R/M47T/E81V/L85R/K89N/A91T/F92P/K93V/R94L/T110A/I118V/H188D ECD-Fc (Fc fusion)
chain: VIHVTKEVKEVATLSSGLNVSVEELAQTDILWHKEGKIVLAMRSGDTNIWPEYKNRTIFDITNNLSIVILALRPSDEGTYVCVVRKYENDTPVLEHLAEVTLSVKADFPAPSISDFEVPTSNIRRIICSTSGGFPEPHLSWLENGEELNAINTTVSQDPETELYAVSSKLDFNMTTNHSFMCLIKYGDLRVNQTFNWNTTKQEHFPDN
- MFI [1]: 1210
- parental ratio [1]: 0.03
- MFI [2]: 1800
- parental ratio [2]: 0.01
- MFI [3]: 4500
- parental ratio [3]: 0.03

B6: CD80 R29D/Y31L/Q33H/K36G/M38I/T41A/M43R/M47T/L70Q/E81V/K89N/A91T/F92P/K93V/R94L/I118V/T120S/I127T/T130A ECD-Fc (Fc fusion)
chain: VIHVTKEVKEVATLSCGHNVSVEELAQTDILWHKEGKIVLAMRSGDTNIWPEYKNRTIFDITNNLSIVIQALRPSDEGTYVCVVLKYENDTPVLEHLAEVTLSVKADFPTPSISDFEVPSSNIRRITCSASGGFPEPHLSWLENGEELNAINTTVSQDPETELYAVSSKLDFNMTTNHSFMCLIKYGHLRVNQTFNWNTTKQEHFPDN
- MFI [1]: 2110
- parental ratio [1]: 0.05
- MFI [2]: 2120
- parental ratio [2]: 0.01
- MFI [3]: 14200
- parental ratio [3]: 0.05

B7: variant CD80 IgV-Fc E35D/L97R (Fc fusion)
chain: VIHVTKEVKEVATLSCGHNVSVEELAQTRIYWQKDKKMVLTMMSGDMNIWPEYKNRTIFDITNNLSIVILALRPSDEGTYECVVLKYEKDAFKREHRAEVTLSVKAD
- MFI at 33.3 nM [4]: 22800 MFI
- MFI at 33.3 nM [5]: 2610 MFI
- MFI at 33.3 nM [6]: 44.6 MFI

B8: variant CD80 IgV-Fc H18Y/M47L/V68M/D90G (Fc fusion)
chain: VIHVTKEVKEVATLSCGYNVSVEELAQTRIYWQKEKKMVLTMMSGDLNIWPEYKNRTIFDITNNLSIMILALRPSDEGTYECVVLKYEKGAFKREHLAEVTLSVKAD
- Fold change to WT CD80 [7]: 499 fold
- MFI at 33.3 nM [7]: 21800 MFI
- Fold change to WT CD80 [8]: 86.4 fold
- MFI at 33.3 nM [8]: 3800 MFI
- Ratio of PDL1:CD28 [9]: 5.7
- Fold change to WT CD80 [10]: 14 fold
- MFI at 33.3 nM [10]: 19000 MFI

B9: variant CD80 IgV-Fc H18Y/A26E/M47L/A71G (Fc fusion)
chain: VIHVTKEVKEVATLSCGYNVSVEELEQTRIYWQKEKKMVLTMMSGDLNIWPEYKNRTIFDITNNLSIVILGLRPSDEGTYECVVLKYEKDAFKREHLAEVTLSVKAD
- Fold change to WT CD80 [7]: 357 fold
- MFI at 33.3 nM [7]: 15600 MFI
- Fold change to WT CD80 [8]: 13.9 fold
- MFI at 33.3 nM [8]: 611 MFI
- Ratio of PDL1:CD28 [9]: 25.5
- Fold change to WT CD80 [10]: 16.3 fold
- MFI at 33.3 nM [10]: 22100 MFI

B10: variant CD80 IgV-Fc H18Y/A26E/V68M/A71G (Fc fusion)
chain: VIHVTKEVKEVATLSCGYNVSVEELEQTRIYWQKEKKMVLTMMSGDMNIWPEYKNRTIFDITNNLSIMILGLRPSDEGTYECVVLKYEKDAFKREHLAEVTLSVKAD
- Fold change to WT CD80 [7]: 158 fold
- MFI at 33.3 nM [7]: 6870 MFI
- Fold change to WT CD80 [8]: 2.3 fold
- MFI at 33.3 nM [8]: 99.4 MFI
- Ratio of PDL1:CD28 [9]: 69.1
- Fold change to WT CD80 [10]: 8.3 fold
- MFI at 33.3 nM [10]: 11300 MFI

B11: variant CD80 IgV-Fc H18Y/A26E/V68M/D90G (Fc fusion)
chain: VIHVTKEVKEVATLSCGYNVSVEELEQTRIYWQKEKKMVLTMMSGDMNIWPEYKNRTIFDITNNLSIMILALRPSDEGTYECVVLKYEKGAFKREHLAEVTLSVKAD
- Fold change to WT CD80 [7]: 295 fold
- MFI at 33.3 nM [7]: 12800 MFI
- Fold change to WT CD80 [8]: 54.5 fold
- MFI at 33.3 nM [8]: 2390 MFI
- Ratio of PDL1:CD28 [9]: 5.4
- Fold change to WT CD80 [10]: 19 fold
- MFI at 33.3 nM [10]: 25800 MFI

B12: variant CD80 IgV-Fc A26E/E35D/M47L/D90G (Fc fusion)
chain: VIHVTKEVKEVATLSCGHNVSVEELEQTRIYWQKDKKMVLTMMSGDLNIWPEYKNRTIFDITNNLSIVILALRPSDEGTYECVVLKYEKGAFKREHLAEVTLSVKAD
- Fold change to WT CD80 [7]: 220 fold
- MFI at 33.3 nM [7]: 9580 MFI
- Fold change to WT CD80 [8]: 35.3 fold
- MFI at 33.3 nM [8]: 1550 MFI
- Ratio of PDL1:CD28 [9]: 6.2
- Fold change to WT CD80 [10]: 13.4 fold
- MFI at 33.3 nM [10]: 18200 MFI

B13: variant CD80 IgV-Fc H18Y/A26E/M47L/D90G (Fc fusion)
chain: VIHVTKEVKEVATLSCGYNVSVEELEQTRIYWQKEKKMVLTMMSGDLNIWPEYKNRTIFDITNNLSIVILALRPSDEGTYECVVLKYEKGAFKREHLAEVTLSVKAD
- Fold change to WT CD80 [7]: 205 fold
- MFI at 33.3 nM [7]: 8930 MFI
- Fold change to WT CD80 [8]: 65.1 fold
- MFI at 33.3 nM [8]: 2860 MFI
- Ratio of PDL1:CD28 [9]: 3.1
- Fold change to WT CD80 [10]: 17.3 fold
- MFI at 33.3 nM [10]: 23500 MFI

B14: variant CD80 IgV-Fc V22A/E35D/M47I/Y87N (Fc fusion)
chain: VIHVTKEVKEVATLSCGHNVSAEELAQTRIYWQKDKKMVLTMMSGDINIWPEYKNRTIFDITNNLSIVILALRPSDEGTYECVVLKNEKDAFKREHLAEVTLSVKAD
- MFI at 33.3 nM [11]: 246000 MFI
- MFI at 33.3 nM [12]: 35300 MFI
- Fold change to WT CD80 [13]: 1.56 fold
- Fold change to WT CD80 [14]: 0.85 fold
- MFI at 33.3 nM [15]: 15300 MFI

B15: CD80 R29D/Y31L/Q33H/K36G/M38I/T41A/M43R/M47T/L70Q/D76G/A91G/S103L/I118V/T120S/I127T/T130A ECD-Fc (Fc fusion)
chain: VIHVTKEVKEVATLSCGHNVSVEELAQTDILWHKEGKIVLAMRSGDTNIWPEYKNRTIFDITNNLSIVIQALRPSGEGTYECVVLKYEKDGFKREHLAEVTLLVKADFPTPSISDFEVPSSNIRRITCSASGGFPEPHLSWLENGEELNAINTTVSQDPETELYAVSSKLDFNMTTNHSFMCLIKYGHLRVNQTFNWNTTKQEHFPDN
- MFI [1]: 1910
- parental ratio [1]: 0.04
- MFI [2]: 1730
- parental ratio [2]: 0.01
- MFI [3]: 3510
- parental ratio [3]: 0.04

Source: patent US20220177587A1, “METHODS AND USES OF VARIANT CD80 FUSION PROTEINS AND RELATED CONSTRUCTS” (Alpine Immune Sciences, Inc., priority 2018, published 2022)
